Assays:
Assay in all cases: ELISA, biotinylated recombinant protein on streptavidin plate, HRP anti-His detection
[1] = target: T1, 生物素标记重组人CD40 (rhCD40) (human, UniProt P25942 21-193, biotin label (site not stated))
T1 construct: Bought protein

[2] = target: T2, 生物素标记重组人CD27 (rhCD27) (human, UniProt P26842 21-192, limits assumed, biotin label (site not stated))
T2 construct: Bought protein
T2 sequence (looked up): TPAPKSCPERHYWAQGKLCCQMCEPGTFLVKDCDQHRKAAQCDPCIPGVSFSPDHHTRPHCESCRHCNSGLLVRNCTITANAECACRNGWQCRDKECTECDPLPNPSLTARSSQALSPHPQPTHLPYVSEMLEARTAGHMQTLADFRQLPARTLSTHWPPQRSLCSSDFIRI

[3] = target: T3, 生物素标记重组人BCMA (rhBCMA) (human, UniProt Q02223 1-54, biotin label (site not stated))
T3 construct: Bought protein
T3 sequence (looked up): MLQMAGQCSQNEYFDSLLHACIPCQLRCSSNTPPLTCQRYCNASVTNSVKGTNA

T1 sequence (P25942 21-193 limits assumed): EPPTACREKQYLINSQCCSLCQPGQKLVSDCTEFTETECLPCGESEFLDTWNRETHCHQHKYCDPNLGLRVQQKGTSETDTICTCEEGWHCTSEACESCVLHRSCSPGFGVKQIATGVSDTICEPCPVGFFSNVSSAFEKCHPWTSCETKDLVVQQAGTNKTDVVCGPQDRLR

binding result [1]: no binding
binding result [2]: no binding
binding result [3]: no binding
B1: anti-CD19 scFv (scFv)
scFv: DIQMTQTTSSLSASLGDRVTISCRASQDISKYLNWYQQKPDGTVKLLIYHTSRLHSGVPSRFSGSGSGTDYSLTISNLEQEDIATYFCQQGNTLPYTFGGGTKLEITGGGGSGGGGSGGGGSEVKLQESGPGLVAPSQSLSVTCTVSGVSLPDYGVSWIRQPPRKGLEWLGVIWGSETTYYNSALKSRLTIIKDNSKSQVFLKMNSLQTDDTAIYYCAKHYYYGGSYAMDYWGQGTSVTVSS
notes: Soluble scFv used in the ELISA and flow cytometry; also called CD19抗体; 小鼠抗人anti CD19-scFv抗体; not shown: His tag implied by the anti-His detection antibody

Source: CN114230673A (dated 2022)
